According to the nanobody polyreactivity screen of Harvey et al. (2022):

experiment: yeast display, Sf9 membrane polyspecificity reagent, FACS + sequencing; frameworks hold sequencing errors
Summary of the method: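 Synthetic nanobody libraries on Saccharomyces cerevisiae BJ5465 were galactose-induced for 36–48 hours, stained 1 hour at 4 °C with 10% biotinylated, detergent-solubilized Sf9 membrane reagent and enriched on streptavidin microbeads. FACS then separated cells into low and high (top ~1%) gates by anti-HA (expression) and streptavidin (reagent binding) fluorescence. Genes were colony-PCR amplified, MiSeq 2 × 250 sequenced and CDR-length filtered. A clone's polyreactivity label is that of its gate of origin.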

Sequence	polyreactivity (PSR sort gate)
QVQLVESGGGLVQAGGSLRLSCAASGFTFVDYAMGWYRQAPGKERELVATINWDSGSTYADSVKGRFTISRDNAKNTVYLQMNSLKPEDSADYYCAADGDEIEVSFYSWGQGTQVTVSS	low polyreactivity
QVQLVESGGGLVQAGGSLRLSCAASGFTFVGNAMGWSRQAPGKERELVAAIRWSSGSTYYADSVKGRFTISRDNAKNTVYLQMNSLKPEDTAVYYCAADYWTGITPDAIGDYWGQGTQVTVSS	low polyreactivity
QVQLVESGGGLVQAGGSLRLSCAASGFTFVGNAMGWYRQAPGQERELVAAITRGGSTYYADSVKGRFTISRDNAKNTVYLQMNSLKPEDTAVYYCNAELPVHWSWYDYWGQGTQVNVSS	low polyreactivity
QVQLVESGGGLVQAGGSLRLSCAASGFTFVINDMGWYRQAPVKERELVADITSGGDTYYADSVKGRFTISRVNAKNTVYLQMYRLKPEDTAVYYCAADIYPDWIYLLYGYWGQGTQVNVSS	low polyreactivity
QVQLVESGGGLVQAGGSLRLSCAASGFTFVIYAMGWYRQAPGKERELVAAIRSGGRTYYADSVKGRFTISRDNAKNTVYLQMNSLKPEDTAVYYCAAVPALKWYGYEYWGQGTQVTVSS	high polyreactivity
QVQLVESGGGLVQAGGSLRLSCAASGFTFVNYAIGWYRQAPGKERELVAAIRRSGSRTYYADSVKGRFTISRDNAKNTVYLQMNSLKPEDTAVYYCAAVWYRLYGYWGQGTQVTVSS	low polyreactivity
QVQLVESGGGLVQAGGSLRLSCAASGFTFVNYAMGWYRQAPGKERELVAASSRSGGRTYYADSVKGRFTISRDNAKNTVYLQKNSLKPEDTAVYYCARLLLSPEYGYWGQGTQVTVSS	high polyreactivity
QVQLVESGGGLVQAGGSLRLSCAASGFTFVPYAMGWYRQAPGKERELVAAISSRGDSTYYADSVKGRFTISRDNAKNTVYLQMNSLKPEDTAVYYCNARTTPHMDYWGQGTQVTVSS	low polyreactivity
QVQLVESGGGLVQAGGSLRLSCAASGFTFVPYAMGWYRQAPGKERETNADSVKGRFTISRDNAKNTVYLQRNSLKPEDTAVYYCAADVWASRRYDYWGQGTQVTVSS	low polyreactivity
QVQLVESGGGLVQAGGSLRLSCAASGFTFVRYTMGWYRQSPGKEREMVAAINRSGGNTYYADSVKGRFTISRDNAKNTVYLQMNSLKPEDTAVYYCAAGYYVQVSLKDYYWGQGTQVTVSS	high polyreactivity
QVQLVESGGGLVQAGGSLRLSCAASGFTFVSNDMGWYRQAPGKERELVAAIRYRGGDTYYADSVKGRFTISRDNAKNTVYLQMNRLKPEDTAVYYCAVDVATYTAGWYYHGYDYWGQGTQVTVSS	low polyreactivity
QVQLVESGGGLVQAGGSLRLSCAASGFTFVSNDMGWYRQEPGKERELVAAISQGGGSTYYADSVKGRFTISRDNAKNTVYLQINSLKPEDTAVYYCAAEDVYFGYDYWGQGTQVTVSS	low polyreactivity
QVQLVESGGGLVQAGGSLRLSCAASGFTFVSYAMGWYRQAPGKERELVAAISKRGGSTSYADSVKGRFTISRDNAKNTVYLQMNSLKPEDTAVYYCNKRSYAWSPHVDYWGQGTQVTVSS	high polyreactivity
QVQLVESGGGLVQAGGSLRLSCAASGFTFVSYAMGWYRQAPGKERELVAVISKSGSRTSYAESVKGRFTISRDNAKNTVYLQMNSLKPEDTAVYYCAVFYTRIGPRYDYWGQGTQVTVSS	high polyreactivity
QVQLVESGGGLVQAGGSLRLSCAASGFTFVVNAMGWYRQAPGKERELVATIRSNGGSTYYADSVKGRFTISRDNAKNTVYLQMNSLKPEDTAVYYCNTDRKHQSGRESAEMDYWGQGTQVTVSS	low polyreactivity
QVQLVESGGGLVQAGGSLRLSCAASGFTFVYKDMGWYRQAPGKEREFVAAISSGGSTYYADSVKGRFTISRDNAKNTVYLQMNSLKPEDTAVYYCARRNPGPKHARYGYWGQGTQVNVSS	high polyreactivity
QVQLVESGGGLVQAGGSLRLSCAASGFTFVYYAMGCYRQAPGKERELVAAISRSGATTFYADSVKGRFTISRDNAKNTVYLQMNSLKPEDTAVYYCAVDSYAYYYGYWGQGTQVTVSS	high polyreactivity
QVQLVESGGGLVQAGGSLRLSCAASGFTFVYYAMGWSRQAPGKERELVAAISRSGATTYYADSVKGRFTISRDNAKNTVYLQMNSLKPEDTAVYYCAAVYRHPRENWPDTRYGYWGQGTQVTVSS	high polyreactivity
QVQLVESGGGLVQAGGSLRLSCAASGFTFVYYAMGWYRQAPGKERELVAAISGRGGSTYYADSVKGRFTISRDNAKNTVYLQMNSLKPEDTAVYYCATTYSWYYVPYKPHIYYYWGQGTQVTVSS	low polyreactivity
QVQLVESGGGLVQAGGSLRLSCAASGFTFVYYAMGWYRQAPGKERELVATISGNGGRTYYADSVKGRFTISRDNAKNTVYLQMNSLKPEDTAVYYCAADVVTYLSYTLDYWGQGTQVTVSS	low polyreactivity
QVQLVESGGGLVQAGGSLRLSCAASGFTFWAYAMGWYRPAPGKERELVARISGSGGRTYYADSVKGRFTISRDNAKNTVYLQMNSLKREDTAVYYCNAPYFNWYGYWGQGTQVTVSS	high polyreactivity

Sequence	polyreactivity (PSR sort gate)
QVQLVESGGGLVQAGGSLRLSCAASGFTFWAYAMGWYRQAPGKETELVAAISKTGGRTYYADSVKGRFTISRDNAKNTVYLQMISLKPEDTAVYYCAVDITGLYYPVDYWGQGTQVTVSS	high polyreactivity
QVQLVESGGGLVQAGGSLRLSCAASGFTFWDYTMGWYRQAPGKERELVAAITRSGGRTYYADSVKGRFTISRDNAKNTVYLQMNSLKPEDTAVYYCAAKIWSKDEKHDYWGQGTQVTVSS	high polyreactivity
QVQLVESGGGLVQAGGSLRLSCAASGFTFWFNAMGWYRQSRGTERELVPTIRRSGGTTYYADSVKGRFTISRDKAKNTVYLQMNSLKPEDTAVYYCAADDYYYPGTVYYFTPGYNYWGQGTQVTVSS	low polyreactivity
QVQLVESGGGLVQAGGSLRLSCAASGFTFWKYAMGWYRQAPGKERELVAAISVSGGRTYYADSVKGRFTISRDNAKNTVYLQMNSLKPEDTAVYYCNATPWRPYVGGEYWGQGTQVTVSS	high polyreactivity
QVQLVESGGGLVQAGGSLRLSCAASGFTFWLYAMGWYRQAPGKERELVAAITSGGGTYYADSVKGRFTISRDNEKNTVYLQMNSLKPEDTAVYYCAAEWVRDYEQGVSSFGFYYWGQGTQVTVSS	low polyreactivity
QVQLVESGGGLVQAGGSLRLSCAASGFTFWPYTMGWYRQAPGKERELVAVISSSGGSTYYADSVKGRFTISRDNAKNTVYLQMNSLKPEDTAVYYCNARRRYGHVDYWGQGTQVTVSS	high polyreactivity
QVQLVESGGGLVQAGGSLRLSCAASGFTFWQYAMGWYRQAPGKERELVAAISGSGSSTYYADSVKGRFTISRDNAKNTVYFQMNSLKPEDTAVYYCATAISRYGRYYYWGQGTQVTVSS	high polyreactivity
QVQLVESGGGLVQAGGSLRLSCAASGFTFWQYAMGWYRQAPGKERELVAAITSSGTSTNYADSVKGRFTISGDNAKKTVYLQMNSLKPEETAVYYCAADLGYYDLYYWGQGTQVTVSS	low polyreactivity
QVQLVESGGGLVQAGGSLRLSCAASGFTFWQYDMGWYRQAPGKERELVAAITSSGSRTYYADSVKGRFTISRDNAKNTVYLQMNSLKPEDTAVYYCNTYLRYWVSYSYDYWGQGTQVTVSS	high polyreactivity
QVQLVESGGGLVQAGGSLRLSCAASGFTFWRNALGWYRQAPGKERELVAAISWRGGSTYYADSVKGRFTISRDNAKNTVSLQINSRKPEDTAGYYCNVVYFRYYSGEYDYGGQGTQVTVSS	high polyreactivity
QVQLVESGGGLVQAGGSLRLSCAASGFTFWWYAMGWYRQAPGKERELVAAISSGGSTNYADSVKGRFTISRDNAKNTVYLQMNSLKPEDTAVYYCNKDYYGSPSSYYGYDYWGQGTQVTESS	high polyreactivity
QVQLVESGGGLVQAGGSLRLSCAASGFTFWYYAMGWYRQAPGKERELVAAISWSGVSTYYADSVKGRFTISRDNAKNTVYLQMNSLKPEDTAVYYCNRRARSYADDYWGQGTQVTVSS	high polyreactivity
QVQLVESGGGLVQAGGSLRLSCAASGFTFWYYAMGWYRQAPGKERELVAAITYNGDRTYYADSVKGRFTISRDNAKNTVYLQMNSLKREDTAVYYCAVYLGIRSGTANDYWGQGTQVTVSS	high polyreactivity
QVQLVESGGGLVQAGGSLRLSCAASGFTFWYYAMGWYRQAPGKERELVATITSGDSTKYADSVKGRFTISRDNAKNTVYLQMNSLKPEDTAVYYCAAEKVLPFIGYDYWGQGTQVTVSS	low polyreactivity
QVQLVESGGGLVQAGGSLRLSCAASGFTFWYYTMGWYRQAPGKERELVAAITRSGGRTYYADSVKGRFTISRDNAKNTVYLQMNSLKPEDTAVYDCAAVGNLYYTSHWQYDYWGQGTQVTVSS	high polyreactivity
QVQLVESGGGLVQAGGSLRLSCAASGFTFYANAMGWYRQAPGKERELVAAISWSGGRTYYADSVKGRFTISRDNAKNTVYLQMNSLKPEDTAVYYCAAKRWTTKNGFYEYPYYYWGQGTQVTVSS	high polyreactivity
QVQLVESGGGLVQAGGSLRLSCAASGFTFYAYAMGWYRQAPGKERELVAVISQSGTRTYYADSVKGRFTISRDNAKNTVYLQMNSLKPEDTAVYYCAADTYSPDREYGYWGQGTQVTVSS	high polyreactivity
QVQLVESGGGLVQAGGSLRLSCAASGFTFYDYAMGWYRQAPGKERELVAAISDSGGITYYADSVTGRFTISRDNAKNTVYLQMNSLKPEDTAVYYCAADFATPGPEYDYWGQGTQVTVSW	low polyreactivity
QVQLVESGGGLVQAGGSLRLSCAASGFTFYFYALGWYRQAPGKERELVATITIGGRTNYADSVKGRFTISRDNAKNTVYLQMNSLKPEDTAVYYCAAAYLWISRYSGYDYWGQGTQVTVSS	high polyreactivity
QVQLVESGGGLVQAGGSLRLSCAASGFTFYGNAMGWYRQAPGKERDLVAAITGRAGRTYYADSVKGRFTISRDNSKNTVYLQMNSLKPEDTAVYYCAVQVAQSRTFSTYGYWGQGTQVTVSS	high polyreactivity
